Laboratory results reported in patent publication US20100021935A1 (FIBROSTATIN SOCIEDAD LIMITADA, published 2010).

Target: T1, recombinant 77-kDa GPBP expressed from pc-n4′ (human, UniProt Q9Y5P4 1-624)
T1 construct: untagged, transient expression in HEK 293 cells; also called 77-kDa GPBP isoform
T1 sequence: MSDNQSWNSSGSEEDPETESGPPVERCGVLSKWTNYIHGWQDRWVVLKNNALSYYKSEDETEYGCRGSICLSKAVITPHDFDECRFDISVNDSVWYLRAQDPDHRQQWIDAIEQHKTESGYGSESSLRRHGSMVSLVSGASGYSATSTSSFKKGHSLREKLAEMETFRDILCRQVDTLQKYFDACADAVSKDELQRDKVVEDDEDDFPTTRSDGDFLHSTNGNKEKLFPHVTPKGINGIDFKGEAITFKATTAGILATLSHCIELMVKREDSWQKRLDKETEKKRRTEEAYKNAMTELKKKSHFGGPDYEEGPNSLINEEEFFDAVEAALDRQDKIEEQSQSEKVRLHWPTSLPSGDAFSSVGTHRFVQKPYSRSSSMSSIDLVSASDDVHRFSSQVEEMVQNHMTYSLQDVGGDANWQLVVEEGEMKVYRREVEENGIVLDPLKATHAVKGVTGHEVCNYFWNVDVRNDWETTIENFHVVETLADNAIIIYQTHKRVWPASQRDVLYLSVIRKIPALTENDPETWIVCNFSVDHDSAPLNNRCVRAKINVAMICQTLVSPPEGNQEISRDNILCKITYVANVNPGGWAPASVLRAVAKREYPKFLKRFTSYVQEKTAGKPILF
Experiment: ex vivo cross-linking and FLAG immunoprecipitation
Procedure: Cells were grown up to 70-90% of confluence in either 150-mm plates (native GPBP) or six-well plates (recombinant GPBP). Cross-linking was performed 48 h after transfection or when cells reached the indicated confluence. Briefly, cells were brought to RT by rinsing with PBS and incubated for 10 min with culture medium containing 1% formaldehyde. The cross-link reaction was quenched with 125 mM Gly-HCl in PBS (pH 7.4) for 10 min at RT. Cells were brought to 4° C. by rinsing with ice-chilled PBS and procedure continued at 4° C. Cells were lysed with 1 or 5 ml (six-well or 150-mm plate) of extraction buffer [16 mM Tris-HCl pH 7.5, 160 mM NaCl, 2 mM ethylenediaminetetraacetic acid (EDTA), 1. […] Eluted samples were boiled with electrophoresis sample buffer (2×) for 15 min to reverse cross-linking and further analyzed by SDS-PAGE and either Coomassie blue staining or Western blot.
This was further assessed by ex vivo cross-linking and FLAG-immunoprecipitation of cells expressing or not expressing BM40-FLAG-α3(IV)NC1, a recombinant exportable form of the human α3(IV)NC1 (16), followed by SDS-PAGE analysis of immunoprecipitates (FIG. 4A). […] To further determine that GPBP indeed interacted with FLAG-α3(IV) in the ER, cells expressing or not expressing BM40-FLAG-α3(IV)NC1 were transfected with pc-n4′ and similarly analyzed (FIG. 4B).

- binding result: binds
B1: FLAG-α3(IV)NC1, recombinant exportable human α3(IV)NC1 domain (BM40-FLAG-α3(IV)NC1) (other, not shown: small tags and cut ends)
chain: GLKGKRGDSGSPATWTTRGFVFTRHSQTTAIPSCPEGTVPLYSGFSFLFVQGNQRAHGQDLGTLGSCLQRFTTMPFLFCNVNDVCNFASRNDYSYWLSTPALMPMNMAPITGRALEPYISRCTVCEGPAIAIAVHSQTTDIPPCPHGWISLWKGFSFIMFTSAGSEGTGQALASPGSCLEEFRASPFLECHGRGTCNYYSNSYSFWLASLNPERMFRKPIPSTVKAGELEKIISRCQVCMKKRH
notes: expressed in HEK 293-FLAG-α3(IV) cells; also called type IV collagen
